{
  "source": "the nanobody polyreactivity screen of Harvey et al. (2022)",
  "data": [
    {"assay": "yeast display, Sf9 membrane polyspecificity reagent, FACS + sequencing; frameworks hold sequencing errors", "summary_of_the_method": "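After 36–48 hours of galactose induction, yeast (Saccharomyces cerevisiae BJ5465) displaying a synthetic nanobody library were stained at 4 °C for 1 hour with 10% biotinylated, detergent-solubilized Sf9 membrane reagent. Streptavidin microbeads enriched the stained cells before FACS sorting into low and high (top ~1%) gates on anti-HA and streptavidin fluorescence. Each clone's polyreactivity label reflects its gate of origin.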", "values": [
      {"sequence": "QVQLEESGGGLVQAAGSLRLSSAASGSTFRYYAMGWYRQAPGKDRELVAAITRSRGSTYYADSVKGRFTISRDKAKNHVYLQMNSVKQEDTEVYYCAARGQTGYYSGVGYWGQGTQVTVSS", "polyreactivity (PSR sort gate)": "high polyreactivity"},
      {"sequence": "QVQLEESGGGLVQAGASLRLSCAASGRTFGSYAMGWYRQAPGKERELVAAISLSAGSTYYADSVKGRFTISRDNAKNTVYLQMNSLKPEDTAVYYCAAGTQWYSHVFIYYYWGQGTQVTVSS", "polyreactivity (PSR sort gate)": "low polyreactivity"},
      {"sequence": "QVQLEESGGGLVQAGGCLRLSCAASGSIFEWYAMGWYRQAPGKERELVADISSVGSTYYADSVKGRFTISRDNAKNTVYLQMNSLKPEDTAVYYCNTSYIIWYDSWGQGTQVTVSS", "polyreactivity (PSR sort gate)": "low polyreactivity"},
      {"sequence": "QVQLEESGGGLVQAGGRLRLRCAASATYRYYGMGWYRQQPGNERELVAAISRSGSRTYYADSVKGRFTISRDNAKNTVYLQMNSLKPEESAFYYCAASSVYYGYDYWGQGTQVTVSS", "polyreactivity (PSR sort gate)": "high polyreactivity"},
      {"sequence": "QVQLEESGGGLVQAGGRLRLSCAASGFTFGRYTMGWYRHAPGKERELVAAITWTGGRTYYADSVKGRFTISRDNAKNTVYLQMNSLKPEDTAVYYCAADTTIIIAQSEDDLWGQGTQVTVSS", "polyreactivity (PSR sort gate)": "high polyreactivity"},
      {"sequence": "QVQLEESGGGLVQAGGRLRLSCAASGSIFTGYTMGWYRQAPGKERELVASISRRGGRTYYADSVKGRFTISRDNAKNTVYLQMNSLKPEDTAVYYCAVDRVPWRYQDSYNYWGQGTQVTVSS", "polyreactivity (PSR sort gate)": "high polyreactivity"},
      {"sequence": "QVQLEESGGGLVQAGGRLRLSCAASGSTFVDYAMGWYRQAPGKQRELVAAISWRGGSTYYADSVKGRFTISRDNAKKTVYLQMNSLKPEDTAVYYCAAEHSGRSPYGYGYWGQGTQVTVSS", "polyreactivity (PSR sort gate)": "high polyreactivity"},
      {"sequence": "QVQLEESGGGLVQAGGRLRLTCAASGRTFFGYPMGWYRQAPGKERELVAAITSSGGRTYYADSVKGRFTISRDNPKNTDYLQMNSLKPEDTAVYYCAARRYRLSTPEFNYWGQGTQVTVSS", "polyreactivity (PSR sort gate)": "high polyreactivity"},
      {"sequence": "QVQLEESGGGLVQAGGSLRISCAASGKIFSYNAMGWYRHAPGKERELVAAISRSGGSTYYADSVKGRFTISRDNAKNTVYLQMNSLKPEDTAVYYCAADWRGRKYDYWGQVTQVTVSS", "polyreactivity (PSR sort gate)": "high polyreactivity"},
      {"sequence": "QVQLEESGGGLVQAGGSLRISCAASGRTFYVNAMGRSRQAPGKERELVAAIRYSDGRTYYADSVKGRFTISRDNAKNTVYLQMNSLKPEDTAVYYCAADTRFISRENYWGQGTQVTVSS", "polyreactivity (PSR sort gate)": "high polyreactivity"},
      {"sequence": "QVQLEESGGGLVQAGGSLRISCAAYGSTFYYNVMGWYRQAPGKERELVAAITWRGDITYYADSVKGRFTISRDNAKYNVYLQMKCLKPEDTAVFYCAKRYQPSYRSNFWGEGTQVTVSS", "polyreactivity (PSR sort gate)": "low polyreactivity"},
      {"sequence": "QVQLEESGGGLVQAGGSLRLICAASGFIFLYYAMGWYRQAPGKERELVAAIDYSGGSTNYADSVKGRFTISRDNAKNTVYLQMHSLKPEDTAVYFFNAEYTWHRGYDYWGQGTQVTVSS", "polyreactivity (PSR sort gate)": "low polyreactivity"},
      {"sequence": "QVQLEESGGGLVQAGGSLRLICAASGLTFPPNSMRWYRQATGKERELVADSGGSTNYADSVKGRFTISRDNAKNNVYLQMNSLKPEDTAVYYCAAPPYSDGQWDDYWGQGTQVTVSS", "polyreactivity (PSR sort gate)": "low polyreactivity"},
      {"sequence": "QVQLEESGGGLVQAGGSLRLICAASGLTFYSYAMGWYRQAPGKERELVATIRWSGGSTYYADSVKGRFTISRDNANNTVYLQMNSLKPEDTAVYYCNKRRYPVGSLFDYWGQGTQVTVSS", "polyreactivity (PSR sort gate)": "low polyreactivity"},
      {"sequence": "QVQLEESGGGLVQAGGSLRLICAASGSTFYPNAMGWYRQAPGKERELVAAITDSVGTTNYADSVKGRFTISRDNAKNTVYLQMNSLKPEDTAVYYCAKVKSYWNGYRYYYWGHGTQVTVSS", "polyreactivity (PSR sort gate)": "low polyreactivity"},
      {"sequence": "QVQLEESGGGLVQAGGSLRLSCAASGAIFDGYGMGGYSQAPGQERELVAAIRWGDGITYYADSVKGRFTISRDNAKTTVYLQMNRLKPDDTAVYYCAAVQHGHEPRVQASYDYWGQGTQVTVSS", "polyreactivity (PSR sort gate)": "low polyreactivity"},
      {"sequence": "QVQLEESGGGLVQAGGSLRLSCAASGFIFGKNDMGWYRQAPWKERELVAAITIGGSTNYADSVKGRFTISRDNAKNTVYLQMNSLKPEDTAVYYCNADSYHYGTSLYNYWGQGTQVTVSS", "polyreactivity (PSR sort gate)": "low polyreactivity"},
      {"sequence": "QVQLEESGGGLVQAGGSLRLSCAASGFIFLLNFMGWYRQAPAKDRELVAGNRSSTASTYYADSVKGRFTISRDNAKNTFYLEMNCLKPEDTAVSYCAAVSGWQYEYYSWGQGTQVTVSS", "polyreactivity (PSR sort gate)": "low polyreactivity"},
      {"sequence": "QVQLEESGGGLVQAGGSLRLSCAASGFIFTPYAMGWYRQAPGKERELVAAISRSGGSTYYADSVKGRFTISRDNAKNTVYLQMNSLKPEDTAVYYCAADVYRTAYYYGSYYWGQGTQVTVSS", "polyreactivity (PSR sort gate)": "high polyreactivity"},
      {"sequence": "QVQLEESGGGLVQAGGSLRLSCAASGFIFYIYAMGWYRQAPGKERELVAAITSGGSTNYADSVKGRFTITRDNAKNTVYLQMNSLKPEDTAVYYCAADSYYGYDYWGQVTQVTVSS", "polyreactivity (PSR sort gate)": "low polyreactivity"},
      {"sequence": "QVQLEESGGGLVQAGGSLRLSCAASGFIITGYTMGWYRQAPGKERELVAVISYSGGNTYYADSVKGRFTSSRDNEKNTVYLQMISVKPDYTAVYYCNKLTYKGYEYWGQGTQVNVSS", "polyreactivity (PSR sort gate)": "high polyreactivity"},
      {"sequence": "QVQLEESGGGLVQAGGSLRLSCAASGFIITWYTMGWYRQAPGKERELVAAITSGGNTNYADSVKGRFTISRDNAKNTVYLQMNCLKPEDTAVYYCARGYLASRLKFAKYDYWGQGTQVTVSS", "polyreactivity (PSR sort gate)": "high polyreactivity"},
      {"sequence": "QVQLEESGGGLVQAGGSLRLSCAASGFTFFQYAMGWYRQAPGKERELVAAITSGVSTNYADSVKGRFTISRDNAKNTVYVQMNSLKPEDTAVYYCAADPRSLQSWRGEFAGEYWGQGTQVTVSS", "polyreactivity (PSR sort gate)": "low polyreactivity"},
      {"sequence": "QVQLEESGGGLVQAGGSLRLSCAASGFTFFSYYAMGWYIQAPGKERELVATITSGASTNYADSVKGRFTISRDNAKNTVYLQMNSLKPEDTAVYYCAAAYFYWRVDKYYYWGQGTQVTVSS", "polyreactivity (PSR sort gate)": "low polyreactivity"},
      {"sequence": "QVQLEESGGGLVQAGGSLRLSCAASGFTFGGYAMGWYRQAPGKERELVAAITGSGGNTFYADSVKGRFTISRDYAKNTVYLQMNCLKPEDTAVYYCAKSWYPWSSYGYYRRYDSWGQGTQVTLSS", "polyreactivity (PSR sort gate)": "low polyreactivity"},
      {"sequence": "QVQLEESGGGLVQAGGSLRLSCAASGFTFLYNAMGWYRQAPGKERELVASINSGGSTNYADSVKGRVTISRDNAKNTVYLQMNSLKPEDTAVYYCNAKRHVRKGDYWGQGTQVTVSS", "polyreactivity (PSR sort gate)": "low polyreactivity"},
      {"sequence": "QVQLEESGGGLVQAGGSLRLSCAASGFTFNLYTMGWYRQAPGKERELVAAISRSGDRTYYADSVKGRFTISRDNAKNTVYLQMNSLKPEDTAVYYCAARSYRPTRGDYWGQGTQVTVSS", "polyreactivity (PSR sort gate)": "high polyreactivity"},
      {"sequence": "QVQLEESGGGLVQAGGSLRLSCAASGFTFSLYAMGWYRQAPGKERELVAAISTSGGSTYYADSVKGRFTISRDNAKNTVYLQMNSLKPEDTAVYYCAATTVYSRAYYYVTYWYGYWGQGTQVTVSS", "polyreactivity (PSR sort gate)": "low polyreactivity"},
      {"sequence": "QVQLEESGGGLVQAGGSLRLSCAASGFTFYGNAMGWYRQAPGKERELVATIRYRGGRTYYADSVKGRFTISRDNAKNTVYLQMNSLKPEDTAVYYCNRVGYQYGSDQEDDYWGQGTQVTVSS", "polyreactivity (PSR sort gate)": "high polyreactivity"},
      {"sequence": "QVQLEESGGGLVQAGGSLRLSCAASGFTIIRYAMGWYRQAPGKERELVATISRRGASTYYADSVKGRFTISRANAKNTVYLQMNSLKPEDTAVYYCAKRTYSRKFRGAYNYWGQGTQVTVSS", "polyreactivity (PSR sort gate)": "high polyreactivity"},
      {"sequence": "QVQLEESGGGLVQAGGSLRLSCAASGFTISYYAMGWYRQAPGKERELVAAISSSGGSTYYADSVKGRFTISRDNAKNTVYLQMNSLKPDDTAVYYCAAGWPEYLRDGDYWGQGTQVTVSS", "polyreactivity (PSR sort gate)": "low polyreactivity"},
      {"sequence": "QVQLEESGGGLVQAGGSLRLSCAASGIIFAANAMGWYRQAPGKERELVAAISKNGGITYYADSVKGRFTISRDNAKNTVYLQMNSLKPEDTAVYYCAARWRQTRRYYYWGQGTQVTVSS", "polyreactivity (PSR sort gate)": "high polyreactivity"}
    ]}
  ]
}
